Laboratory results reported in paper PMC4150777 (Nucleic Acids Research, 2014).
Positions count from the first letter of the chain named.

T1: HipBso (Shewanella oneidensis MR-1, UniProt PDB:4PU3_2 1-118)
T1 sequence: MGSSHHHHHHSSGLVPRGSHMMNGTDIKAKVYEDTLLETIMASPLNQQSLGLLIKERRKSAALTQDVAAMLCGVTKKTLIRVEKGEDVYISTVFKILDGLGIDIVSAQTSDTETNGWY

T2: HipAso D306Q active site mutant (non-phosphorylated) (Shewanella oneidensis MR-1, UniProt Q8EIX3 1-433, D306Q)
T2 sequence: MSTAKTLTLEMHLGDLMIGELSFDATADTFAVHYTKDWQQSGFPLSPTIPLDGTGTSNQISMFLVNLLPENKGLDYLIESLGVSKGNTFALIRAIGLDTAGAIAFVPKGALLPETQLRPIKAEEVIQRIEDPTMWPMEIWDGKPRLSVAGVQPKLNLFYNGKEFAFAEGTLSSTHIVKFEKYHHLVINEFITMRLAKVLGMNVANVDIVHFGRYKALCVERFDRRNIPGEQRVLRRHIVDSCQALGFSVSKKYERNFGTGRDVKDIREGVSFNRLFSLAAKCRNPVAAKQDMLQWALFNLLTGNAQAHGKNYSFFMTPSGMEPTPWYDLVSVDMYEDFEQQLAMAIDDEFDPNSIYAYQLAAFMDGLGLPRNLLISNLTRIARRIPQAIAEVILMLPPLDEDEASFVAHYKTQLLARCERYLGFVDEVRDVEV

B1: hipBAso operator DNA (26 bp) (dsDNA)
DNA 1: ATTAGGTGTACTTATCTACACTTTTT
DNA 2: AAAAAGTGTAGATAAGTACACCTAAT
B2: Shewanella oneidensis MR-1 HipBso (SO0705) (natural protein, UniProt Q8EIX4 1-78, looked up)
chain: MASPLNQQSLGLLIKERRKSAALTQDVAAMLCGVTKKTLIRVEKGEDVYISTVFKILDGLGIDIVSAQTSDTETNGWY
B3: Shewanella oneidensis MR-1 HipAso (SO0706), recombinant wild type (enzyme)
chain: T2 sequence with Q306D

Key:
[1] = target: T1, HipBso; assay: ITC
[2] = target: T2, HipAso D306Q active site mutant …; assay: ITC
[3] = target: the molecule itself; assay: SEC
[4] = target: B2; assay: ITC

Q: B1 was tested. Which Kd [1] did it give?
A: 290 nM

Q: B2 was tested. Which Kd [2] did it give?
A: 300 nM

Q: What about the “stoichiometry N” value [3] of the same binder?
A: 2

Q: B3 was tested. Which “stoichiometry N” value [4] did it give?
A: 2 HipAso per HipBso dimer
